Measured values as given in paper PMC11421798, “Subfunctionalization of NRC3 altered the genetic structure of the Nicotiana NRC network” (PLOS Genetics, 2024).
Positions count from the first letter of the chain named. Names and notes keep the numbering of the source.

B1: N^L21ENN (NbNRC3c with L21E) (natural protein, N. benthamiana, UniProt A0A5J6DCA3 1-888, looked up)
chain: MADVAADVAVKFLVENLMQLEIDNADLIIGIKGEVENLLQDLNDFNAFLKQAAKSRRDNEVLKSLVKKIRKVVNDAEDSIDKFVIEAKRHDDKNKFAQWFHLTHVARAKGVADEIKTIRERVKEIRQNDAYGLQAITSYDNFNQGAQERKVPVVEEDDVVGFDDEAKTVIDRLIGGSDYVVPVVGMPGLGKTTLAYKIFKDSTVEYEFFNRIWVYVSQSFNRREIFLNIISKFTRNTKQYHDTPEEELANEIKELLGKGGKYLVVLDDVWTREAWDRIKIAFPNNNKRNRVLMTTRQNNVAKSCNDKPHDLKFLTENESWELLEKRVFHKEKCPFELELPGKSIAKKCRGLPLAIVVIAGALIGKGKTTREWELVADSVGEHLINRDPENCKKLVQMSYDRLPYDLKACFLYCGAFPGGSEISAQKLICLWIAEGFIQYQGPLTLEDIAEDHLNDLVNRNLVMVMKRSSSGQIKTCRVHDMLHEFCRHEAMMEENLFQEIKRGQEHSFPEKQELASYRRLCIHSSVSEFLSTKPFAEHVRSFLCFASKKFEMPLGEIPAIPRAFPLLRVLDAESIKFSRFSREFFKLFHLRYIAFSTDSIMTIPTNIGNLWNVQTLIIETQQGTLDIKADIWNMTRLRHVCINASATLPSPKRPKSSKDNLVNRCLQTLSTIAPECCTAEVFTRTPNLKKLGVRGKIDALLETSKDGSSSGLFSNIGKLDCLEKLKLVNDTRQSRKQLHLPPAYIFPQKLKKLTLIDTWFEWKDMSILGLLEYLEVLKLKENAFRGQSWEPEDSGFPRLQVLWIERTDLSSWKASSGNFPRLKCLVLIACDNLKELPAELADVENLQLMELQSTSVSAAKSARAILKKKQQKVGSGFKLSVFPPDLGL
notes: NRC3 (NbNRC3c) of Nicotiana benthamiana with L21E in the CC domain; L21E is named only in the methods of the BN-PAGE; the results call this protein NNN; also called NNN (in the BN-PAGE); source: nrc2/3/4_KO N. benthamiana leaves, agroinfiltrated, in digitonin extract
B2: N^L21… (… with L21E) (natural protein, N. benthamiana, UniProt A0A5J6DCA3 1-888, looked up)
chain: B1 chain with S202P, T203K, N221K, I642T, C824H, N832K
notes: L21E is named only in the methods of the BN-PAGE; source: nrc2/3/4_KO N. benthamiana leaves, agroinfiltrated, in digitonin extract

Target: the molecule itself
Assay: native gel or EMSA; BN-PAGE (NativePAGE 4-16% Bis-Tris) of 1% digitonin extracts of nrc2/3/4_KO N. benthamiana leaves at 2 dpi; NRC3 variant co-expressed with Rpi-blb2, without AVRblb2

Row | Protein | stoichiometry N
1 | B1 | 2
2 | B2 | 2
